Laboratory results as given in the RNAGym collection of RNA variant scans (doi:10.1073/pnas.2313332121).
Fewer inactive variants are shown than the library holds.

B1: TPR 5TU (parent)
chain: GGAUCUUCUCGAUCUAACAAAAAAGACAAAUCUGCCACAAAGCUUGAGAGCAUCUUCGGAUGCAGAGGCGGCAGCCUUCGGUGGCGCGAUAGCGCCAACGUUCUCAACUAUGACACGCAAAACGCGUGCUCCGUUGAAUGGAGUUUAUCAUG

Variants of: B1
Test: polymerase ribozyme fitness, log enrichment relative to wild type (log ratio); higher = more active; in vitro selection for triplet polymerase activity
Method in brief: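 Mutant libraries of both subunits of a heterodimeric triplet polymerase ribozyme were PCR-built, transcribed, and selected once in triplicate, with frozen incubation at −7 °C and capture of gel-excised extended constructs on streptavidin beads before RT-PCR. Illumina sequencing of input and output libraries was filtered to genotypes with ≥10 input reads and ≥1 read per output. Fitness is the logarithm of genotype enrichment over wild-type enrichment, using inverse-variance-weighted replicate averages. The logarithm is base 2.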

Variant | polymerase ribozyme fitness (log ratio)
U9A G11A C14U A19G C76A U82G C103A C116U | ≤ -4.2
U9C A26G U55A A122U | ≤ -4.2
U9G G50A G83A G133U | ≤ -4.2
U9G C35A A39G C87A C125U G143A U151A | -3.88
C10G A52C C93U | ≤ -4.2
U9G A29C G59A C76U C87G A120C | ≤ -4.2
U9A A39U G48A G84U C99A G117U | ≤ -4.2
C10G C36U U55A C95U G133U | ≤ -4.2
C10G A73U G128U | ≤ -4.2
C10A U31G C35G G42C C69U G92A C95G G100A G143A | -3.74
C10G U33A C69A C96G | ≤ -4.2
U9G C36U C76A G94A | ≤ -4.2
C10G G46U G143C U148C | ≤ -4.2
C10A A16U U33A A121U G141C | -4.19
U9C G50C C75G C85G C125A | ≤ -4.2
C10A A12G A22G U56A C85G | ≤ -4.2
C10A G81C | ≤ -4.2
C10A G67C C93G C99G A137U U146A | ≤ -4.2
U9G G74A G84A A107G | ≤ -4.2
U9A A24U A121U A122U G141A | ≤ -4.2
U9A A20U A28U C79A C87U U139A | ≤ -4.2

Variant | polymerase ribozyme fitness (log ratio)
U9G C69A U102C | ≤ -4.2
U9G G34U C85A U139A | ≤ -4.2
C10G G11U C32A C51U C75U C93U C95A | -4.16
U9A A24G C54A C87G | ≤ -4.2
U9C A22C C96G C99G G128U | ≤ -4.2
U9G A40C | -3.48
C10G C54U U56A G62U G94A C149U | ≤ -4.2
C10G C76U | -3.93
U9A C57G G84U | ≤ -4.2
U9G G48C G62A U82A G84U | ≤ -4.2
U9C A23U G58U A73U C79A G83C G86A A107G G141C | ≤ -4.2
U9G G86A A138G | ≤ -4.2
C10A A23C G25C G92A A113U | ≤ -4.2
U9A C76U C85U C132U G133C | ≤ -4.2
U9C A22G A23C G25C G83C | ≤ -4.2
U9G U56A | -4.07
U9C A12G A21U G42U C51G U53A C96A | ≤ -4.2
U9C C38U A52U C75G G92U G94A G136U U144G | ≤ -4.2
U9A A20C A26G A28U G67U U82C U90G G124A U134C U146A | ≤ -4.2
C10G C35U | -3.4
U9A A41G A91U C95A C96G U102G G133A U135C | ≤ -4.2

Variant | polymerase ribozyme fitness (log ratio)
C10G U33G G42C G50U G74C | ≤ -4.2
U9A U13G C32G C51G G70U U127G | ≤ -4.2
U9G A21C C35U C85G | ≤ -4.2
U9A G128C U139A | ≤ -4.2
C10G U55G C103A | ≤ -4.2
U9G C32G G71A | ≤ -4.2
U9A A22C A37U U45A U53A G84A A147U | ≤ -4.2
C10A A22U A24G A40C A52C C57U G70A C93U A147C | -4.05
C10G C27U U61A C99A | ≤ -4.2
U9A G34A C57A C85A A91U | ≤ -4.2
C10A G50A A60G G86A G133C | ≤ -4.2
C10A C32A U56G G80C U82G C87U A98U | ≤ -4.2
U9G C18U U45G G48A C76U | ≤ -4.2
U9A G59A A60C C93U | ≤ -4.2
U9A C36A C72G G92A C129A A137U | ≤ -4.2
C10A C76G G81A G86U A137U | ≤ -4.2
U9C A16U A21G G70C G92U G143U U145G | ≤ -4.2
C10A A21U G84A A97U A113G | ≤ -4.2
U9C A22C C54U G71U G84A C95A A98U C108A C114U A115C | ≤ -4.2
C10U A16C A39C G50U U56A G67C G94C C108U | ≤ -4.2
U9C C10G C36G U55A G84A G126A | ≤ -4.2

Variant | polymerase ribozyme fitness (log ratio)
U9G C35U A52C U61A C87A U101C C125A | ≤ -4.2
U9G A16U A64U C85G U135C U144G A150U | ≤ -4.2
C10G A91G A97G C108A C118G | ≤ -4.2
U9A A23U U77A | ≤ -4.2
C10A A22G G46A C54U C75G G83U C95A | ≤ -4.2
U9G G88C C99A A119U | ≤ -4.2
U9C A30U C35A U82A A91U C93A G140U G143A U151G | ≤ -4.2
U9G A12C A16U U31A G62A G71A G80C C87U C108U | ≤ -4.2
C10A G92A | -4.08
U9A A41U G74A A89G C132U | ≤ -4.2
C10G A73U C76A C85G | ≤ -4.2
C10U A16C A23U G62C A64G G83C U102G C114U U127G | ≤ -4.2
U9A A23C C32U C72G G80A G81A | ≤ -4.2
U9G U15C C87G A113G A142G | ≤ -4.2
C10A U33G A60G C75A A106U G117U A137C U144A | ≤ -4.2
U9A C18G A52G G58C A138G | ≤ -4.2
U9G C87G C93U C125A | ≤ -4.2
C10G A41C A73U U134A | ≤ -4.2
U9G A16G C18A C63U | ≤ -4.2
C10G A28U C54U C85G C116U | ≤ -4.2
U9A G50A G94U | ≤ -4.2
